Molecular target: Erbb-3-Fc (RND systems) (UniProt P21860)
Experiment: SPR (Biacore T100), monovalent affinity; column head 'KD on Her3 (nM)'; PB4188 on CM5 chip, Her3-Fc in solution

Kd: 3.9 nM
Substance: PB4188 (MF3958 x MF3178) (bispecific antibody)
